T1: CD19 (UniProt P15391 20-291, limits assumed)
T1 sequence (looked up): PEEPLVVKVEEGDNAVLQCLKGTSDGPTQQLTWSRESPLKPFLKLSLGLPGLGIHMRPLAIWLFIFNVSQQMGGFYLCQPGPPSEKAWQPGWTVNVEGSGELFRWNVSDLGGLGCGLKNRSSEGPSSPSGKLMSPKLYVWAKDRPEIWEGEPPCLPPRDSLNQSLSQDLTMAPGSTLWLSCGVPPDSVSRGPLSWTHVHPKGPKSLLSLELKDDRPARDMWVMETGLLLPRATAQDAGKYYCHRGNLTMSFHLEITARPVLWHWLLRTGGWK

B1: SI-75P5 (other)
chain 1: EVQLQESGGGLVQAGDSLSLSCLVSGRSFNSYTMGWFRQAPGKEREFVAAILWSGPTTYYADSVKGRFTISRDNAKNTVYLQMNSLKPEDTAVYYCAAALGVLVLAPGNVYSYWGQGTQVTVSSGGGGSGGGGSEVQLVESGGGLVQPGGSLRLSCAASGFTISTNAMSWVRQAPGKGLEWIGVITGRDITYYASWAKGRFTISRDNSKNTLYLQMNSLRAEDTAVYYCARDGGSSAITSNNIWGQGTLVTVSSASTKGPSVFPLAPSSKSTSGGTAALGCLVKDYFPEPVTVSWNSGALTSGVHTFPAVLQSSGLYSLSSVVTVPSSSLGTQTYICNVNHKPSNTKVDKRVEPKSCDKTHTCPPCPAPEAAGGPSVFLFPPKPKDTLMISRTPEVTCVVVDVSHEDPEVKFNWYVDGVEVHNAKTKPREEQYNSTYRVVSVLTVLHQDWLNGKEYKCAVSNKALPAPIEKTISKAKGQPREPQVYTLPPSRDELTKNQVSLSCAVKGFYPSDIAVEWESNGQPENNYKTTPPVLDSDGSFFLVSKLTVDKSRWQQGNVFSCSVMHEALHNHYTQKSLSLSPGGGGGSGGGGSDVVMTQSPSSVSASVGDRVTITCQASQNIRTYLSWYQQKPGKAPKLLIYAAANLASGVPSRFSGSGSGTDFTLTISDLEPGDAATYYCQSTYLGTDYVGGAFGGGTKLTVLGGGGSGGGGSGGGGSGGGGSEVQLVESGGGLVQPGGSLRLSCTASGFTISSYHMQWVRQAPGKGLEYIGTISSGGNVYYASSARGRFTISRPSSKNTVDLQMNSLRAEDTAVYYCARDSGYSDPMWGQGTLVTVSS
chain 2: QVQLVQSGGGLVQAGGSLSLSCAFSGRTFSMYTMGWFRQAPGKEREFVAANRGRGLSPDIADSVNGRFTISRDNAKNTLYLQMDSLKPEDTAVYYCAADLQYGSSWPQRSSAEYDYWGQGTTVTVSSGGGGSGGGGSDVVMTQSPSTLSASVGDRVTINCQASESISSWLAWYQQKPGKAPKLLIYEASKLASGVPSRFSGSGSGTEFTLTISSLQPDDFATYYCQGYFYFISRTYVNSFGGGTKVEIKRTVAAPSVFIFPPSDEQLKSGTASVVCLLNNFYPREAKVQWKVDNALQSGNSQESVTEQDSKDSTYSLSSTLTLSKADYEKHKVYACEVTHQGLSSPVTKSFNRGECGGDKTHTCPPCPAPEAAGGPSVFLFPPKPKDTLMISRTPEVTCVVVDVSHEDPEVKFNWYVDGVEVHNAKTKPREEQYNSTYRVVSVLTVLHQDWLNGKEYKCAVSNKALPAPIEKTISKAKGQPREPQVYTLPPSRDELTKNQVSLWCLVKGFYPSDIAVEWESNGQPENNYKTTPPVLDSDGSFFLYSKLTVDKSRWQQGNVFSCSVMHEALHNRFTQKSLSLSPGGGGGSGGGGSDIQMTQSPSTLSASVGDRVTITCQASQSISSHLNWYQQKPGKAPKLLIYKASTLASGVPSRFSGSGSGTEFTLTISSLQPDDFATYYCQQGYSWGNVDNVFGGGTKVTVLGGGGSGGGGSGGGGSGGGGSEVQLLESGGGLVQPGGSLSLSCAASGFSFSSGYDMCWVRQAPGKGLEWIACIAAGSAGITYDANWAKGRFTISRDNSKNTLYLQMNSLRAEDTAVYYCARSAFSFDYAMDLWGQGTLVTVSS
notes: penta-miniGNC; D1 αEGFR VHH, D2 αHER3 VHH, D3 αCD3 (Fab), D4 α4-1BB, D5 αPD-L1
B2: human CD3 (receptor)
chain 1: DGNEEMGGITQTPYKVSISGTTVILTCPQYPGSEILWQHNDKNIGGDEDDKNIGSDEDHLSLKEFSELEQSGYYVCYPRGSKPEDANFYLYLRARVCENCMEMD
chain 2: FKIPIEELEDRVFVNCNTSITWVEGTVGTLLSDITRLDLGKRILDPRGIYRCNGTDIYKDKESTVQVHYRMCQSCVELDPATVA
notes: also called His-tagged human CD3; human CD3 (Acro CDD-H52W1)
B3: SI-49PM1 (other)
chain 1: FLNSLFNQEVQIPLTESYCGPCPKNWICYKNNCYQFFDESKNWYESQASCMSQNASLLKVYSKEDQDLLKLVKSYHWMGLVHIPTNGSWQWEDGSILSPNLLTIIEMQKGDCALYASSFKGYIENCSTPNTYICMQRTVGGGGSGGGGSGGGGSGGGGSFLNSLFNQEVQIPLTESYCGPCPKNWICYKNNCYQFFDESKNWYESQASCMSQNASLLKVYSKEDQDLLKLVKSYHWMGLVHIPTNGSWQWEDGSILSPNLLTIIEMQKGDCALYASSFKGYIENCSTPNTYICMQRTVVDGGGGSGGGGSEVQLVESGGGLVQPGGSLRLSCAASGFTISTNAMSWVRQAPGKGLEWIGVITGRDITYYASWAKGRFTISRDNSKNTLYLQMNSLRAEDTAVYYCARDGGSSAITSNNIWGQGTLVTVSSASTKGPSVFPLAPSSKSTSGGTAALGCLVKDYFPEPVTVSWNSGALTSGVHTFPAVLQSSGLYSLSSVVTVPSSSLGTQTYICNVNHKPSNTKVDKRVEPKSCDKTHTCPPCPAPEAAGGPSVFLFPPKPKDTLMISRTPEVTCVVVDVSHEDPEVKFNWYVDGVEVHNAKTKPREEQYASTYRVVSVLTVLHQDWLNGKEYKCAVSNKALPAPIEKTISKAKGQPREPQVCTLPPSRDELTKNQVSLSCAVKGFYPSDIAVEWESNGQPENNYKTTPPVLDSDGSFFLVSKLTVDKSRWQQGNVFSCSVMHEALHNHYTQKSLSLSPGGGGGSGGGGSRSLVESGGGLVQPGGSLRLSCTASGFTISSYHMQWVRQAPGKCLEYIGTISSGGNVYYASSARGRFTISRPSSKNTVDLQMNSLRAEDTAVYYCARDSGYSDPMWGQGTLVTVSSGGGGSGGGGSGGGGSGGGGSDVVMTQSPSSVSASVGDRVTITCQASQNIRTYLSWYQQKPGKAPKLLIYAAANLASGVPSRFSGSGSGTDFTLTISDLEPGDAATYYCQSTYLGTDYVGGAFGCGTKVEIK
chain 2: ENVLTQSPASLSASPGERVTITCSASSSVSYMHWYQQKPGQAPKLWIYDTSKLASGVPSRFSGSGSGNDHTLTISSMEPEDFATYYCFQGSVYPFTFGQGTKVTVLGGGGSGGGGSGGGGSGGGGSQVTLKESGPGLVQPGQTLSLTCAFSGFSLSTSGMGVGWIRQPPGKGLEWLAHIWWDDDKRYNPALKSRLTISKDTSKNQVYLQMNSLDAEDTAVYYCARMELWSYYFDYWGQGTLVTVSSGGGGSGGGGSDVVMTQSPSTLSASVGDRVTINCQASESISSWLAWYQQKPGKAPKLLIYEASKLASGVPSRFSGSGSGTEFTLTISSLQPDDFATYYCQGYFYFISRTYVNSFGGGTKVEIKRTVAAPSVFIFPPSDEQLKSGTASVVCLLNNFYPREAKVQWKVDNALQSGNSQESVTEQDSKDSTYSLSSTLTLSKADYEKHKVYACEVTHQGLSSPVTKSFNRGECGGDKTHTCPPCPAPEAAGGPSVFLFPPKPKDTLMISRTPEVTCVVVDVSHEDPEVKFNWYVDGVEVHNAKTKPREEQYNSTYRVVSVLTVLHQDWLNGKEYKCAVSNKALPAPIEKTISKAKGQPREPQVYTLPPSRDELTKNQVSLWCLVKGFYPSDIAVEWESNGQPENNYKTTPPVLDSDGSFFLYSKLTVDKSRWQQGNVFSCSVMHEALHNRFTQKSLSLSPGGGGGSGGGGSDIQMTQSPSTLSASVGDRVTITCQASQSISSHLNWYQQKPGKAPKLLIYKASTLASGVPSRFSGSGSGTEFTLTISSLQPDDFATYYCQQGYSWGNVDNVFGGGTKVTVLGGGGSGGGGSGGGGSGGGGSEVQLLESGGGLVQPGGSLSLSCAASGFSFSSGYDMCWVRQAPGKGLEWIACIAAGSAGITYDANWAKGRFTISRDNSKNTLYLQMNSLRAEDTAVYYCARSAFSFDYAMDLWGQGTLVTVSS
notes: control penta-miniGNC; D1 NKG2D (tandem dimer), D2 αCD19, D3 αCD3 (Fab), D4 α4-1BB, D5 αPD-L1

Assays:
human 4-1BB [1] = biological target: T2, human 4-1BB (human, UniProt Q07011 24-186, limits assumed); assay: BLI (Octet), binder on AHC sensor, 400 nM human 4-1BB, 1:1 fit
T2 construct: Soluble antigen in Octet; construct not described

human EGFR = biological target: T3, human EGFR (human, UniProt P00533 25-645, limits assumed); assay: BLI (Octet), binder on AHC sensor, 200 nM human EGFR, 1:1 fit
T3 construct: Soluble antigen in Octet; construct not described

human PD-L1 [2] = biological target: T4, human PD-L1 (human, UniProt Q9NZQ7 19-238); assay: BLI (Octet), binder on AHC sensor, 20 nM human PD-L1, 1:1 fit
T4 construct: Soluble antigen in Octet; bought; also called human PD-L1 (Acro PD1-H5229)

human CD3 [3] = biological target: B2; assay: BLI (Octet), binder on AHC sensor, 100 nM human CD3, 1:1 fit
SI-49P9 = biological target: T5, SI-49P9; assay: BLI (Octet); conditions not stated
T5 construct: penta-miniGNC; D1 αCD3, D2 αCD19, D3 NKG2D receptor dimer, D4 41BBL, D5 αPD-L1
T5 sequence (chain, as listed by the source, chain 1 of 2): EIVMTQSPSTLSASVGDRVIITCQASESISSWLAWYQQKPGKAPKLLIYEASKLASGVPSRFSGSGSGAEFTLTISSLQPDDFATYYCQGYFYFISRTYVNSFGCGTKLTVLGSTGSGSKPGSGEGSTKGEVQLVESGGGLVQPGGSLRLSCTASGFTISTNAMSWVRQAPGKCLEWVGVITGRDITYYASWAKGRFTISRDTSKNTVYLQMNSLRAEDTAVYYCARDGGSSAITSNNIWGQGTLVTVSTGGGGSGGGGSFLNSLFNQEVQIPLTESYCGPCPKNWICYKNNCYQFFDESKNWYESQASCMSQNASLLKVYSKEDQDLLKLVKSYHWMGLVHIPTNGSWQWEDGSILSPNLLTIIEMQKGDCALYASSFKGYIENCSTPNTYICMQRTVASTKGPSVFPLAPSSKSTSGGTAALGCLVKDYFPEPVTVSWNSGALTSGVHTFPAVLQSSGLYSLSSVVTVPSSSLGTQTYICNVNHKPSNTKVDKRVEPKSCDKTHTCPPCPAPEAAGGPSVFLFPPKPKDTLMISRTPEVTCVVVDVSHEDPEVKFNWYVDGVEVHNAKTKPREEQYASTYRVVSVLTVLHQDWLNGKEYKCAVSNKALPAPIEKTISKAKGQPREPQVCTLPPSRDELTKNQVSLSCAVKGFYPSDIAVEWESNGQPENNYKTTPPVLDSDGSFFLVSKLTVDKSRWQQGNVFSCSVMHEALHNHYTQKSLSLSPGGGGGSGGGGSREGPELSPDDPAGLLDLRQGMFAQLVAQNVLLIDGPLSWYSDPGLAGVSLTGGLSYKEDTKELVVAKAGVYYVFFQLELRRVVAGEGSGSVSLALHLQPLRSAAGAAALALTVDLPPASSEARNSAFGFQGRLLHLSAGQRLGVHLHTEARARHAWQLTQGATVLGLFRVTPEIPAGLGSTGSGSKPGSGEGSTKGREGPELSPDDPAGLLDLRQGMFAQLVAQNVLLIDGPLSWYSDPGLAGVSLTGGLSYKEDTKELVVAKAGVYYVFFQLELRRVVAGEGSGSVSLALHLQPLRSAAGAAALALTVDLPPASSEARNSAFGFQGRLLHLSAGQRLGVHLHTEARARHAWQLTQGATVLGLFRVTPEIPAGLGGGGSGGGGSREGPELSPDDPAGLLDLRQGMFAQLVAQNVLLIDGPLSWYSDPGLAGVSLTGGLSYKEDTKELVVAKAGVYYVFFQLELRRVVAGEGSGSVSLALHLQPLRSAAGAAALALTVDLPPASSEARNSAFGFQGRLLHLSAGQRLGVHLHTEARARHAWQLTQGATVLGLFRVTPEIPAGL
T5 sequence (chain, as listed by the source, chain 2 of 2): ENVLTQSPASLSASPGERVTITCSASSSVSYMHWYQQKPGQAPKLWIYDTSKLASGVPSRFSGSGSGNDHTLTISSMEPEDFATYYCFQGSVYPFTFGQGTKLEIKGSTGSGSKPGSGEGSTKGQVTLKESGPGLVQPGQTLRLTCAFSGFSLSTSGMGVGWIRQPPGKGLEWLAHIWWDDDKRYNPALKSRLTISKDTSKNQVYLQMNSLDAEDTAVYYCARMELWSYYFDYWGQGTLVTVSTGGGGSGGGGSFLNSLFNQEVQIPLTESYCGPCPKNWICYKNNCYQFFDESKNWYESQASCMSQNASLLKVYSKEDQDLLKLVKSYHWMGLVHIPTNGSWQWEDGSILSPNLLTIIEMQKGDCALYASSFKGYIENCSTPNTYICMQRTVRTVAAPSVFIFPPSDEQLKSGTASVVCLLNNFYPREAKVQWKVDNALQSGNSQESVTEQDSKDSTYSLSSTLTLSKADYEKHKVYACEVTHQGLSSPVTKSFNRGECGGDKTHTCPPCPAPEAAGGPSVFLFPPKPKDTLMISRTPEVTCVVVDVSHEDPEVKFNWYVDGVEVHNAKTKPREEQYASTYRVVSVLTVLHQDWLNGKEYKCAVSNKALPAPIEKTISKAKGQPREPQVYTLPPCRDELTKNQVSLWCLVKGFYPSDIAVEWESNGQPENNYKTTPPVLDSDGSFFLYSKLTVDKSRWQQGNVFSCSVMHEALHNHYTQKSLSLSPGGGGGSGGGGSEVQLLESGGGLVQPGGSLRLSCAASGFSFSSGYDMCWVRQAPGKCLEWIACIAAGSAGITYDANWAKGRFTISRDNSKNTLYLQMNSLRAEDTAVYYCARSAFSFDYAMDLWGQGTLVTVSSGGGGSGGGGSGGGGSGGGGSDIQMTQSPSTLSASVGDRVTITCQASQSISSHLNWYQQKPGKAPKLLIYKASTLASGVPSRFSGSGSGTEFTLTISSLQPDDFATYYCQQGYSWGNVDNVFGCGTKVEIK

SI-75P4 = biological target: T6, SI-75P4; assay: BLI (Octet), binder on AHC sensor, 100 nM human antigen, 1:1 fit
T6 construct: penta-miniGNC; D1 αEGFR, D2 αHER3, D3 αCD3 (Fab), D4 41BBL (ligand of the 4-1BB receptor), D5 αPD-L1
T6 sequence (chain, as listed by the source): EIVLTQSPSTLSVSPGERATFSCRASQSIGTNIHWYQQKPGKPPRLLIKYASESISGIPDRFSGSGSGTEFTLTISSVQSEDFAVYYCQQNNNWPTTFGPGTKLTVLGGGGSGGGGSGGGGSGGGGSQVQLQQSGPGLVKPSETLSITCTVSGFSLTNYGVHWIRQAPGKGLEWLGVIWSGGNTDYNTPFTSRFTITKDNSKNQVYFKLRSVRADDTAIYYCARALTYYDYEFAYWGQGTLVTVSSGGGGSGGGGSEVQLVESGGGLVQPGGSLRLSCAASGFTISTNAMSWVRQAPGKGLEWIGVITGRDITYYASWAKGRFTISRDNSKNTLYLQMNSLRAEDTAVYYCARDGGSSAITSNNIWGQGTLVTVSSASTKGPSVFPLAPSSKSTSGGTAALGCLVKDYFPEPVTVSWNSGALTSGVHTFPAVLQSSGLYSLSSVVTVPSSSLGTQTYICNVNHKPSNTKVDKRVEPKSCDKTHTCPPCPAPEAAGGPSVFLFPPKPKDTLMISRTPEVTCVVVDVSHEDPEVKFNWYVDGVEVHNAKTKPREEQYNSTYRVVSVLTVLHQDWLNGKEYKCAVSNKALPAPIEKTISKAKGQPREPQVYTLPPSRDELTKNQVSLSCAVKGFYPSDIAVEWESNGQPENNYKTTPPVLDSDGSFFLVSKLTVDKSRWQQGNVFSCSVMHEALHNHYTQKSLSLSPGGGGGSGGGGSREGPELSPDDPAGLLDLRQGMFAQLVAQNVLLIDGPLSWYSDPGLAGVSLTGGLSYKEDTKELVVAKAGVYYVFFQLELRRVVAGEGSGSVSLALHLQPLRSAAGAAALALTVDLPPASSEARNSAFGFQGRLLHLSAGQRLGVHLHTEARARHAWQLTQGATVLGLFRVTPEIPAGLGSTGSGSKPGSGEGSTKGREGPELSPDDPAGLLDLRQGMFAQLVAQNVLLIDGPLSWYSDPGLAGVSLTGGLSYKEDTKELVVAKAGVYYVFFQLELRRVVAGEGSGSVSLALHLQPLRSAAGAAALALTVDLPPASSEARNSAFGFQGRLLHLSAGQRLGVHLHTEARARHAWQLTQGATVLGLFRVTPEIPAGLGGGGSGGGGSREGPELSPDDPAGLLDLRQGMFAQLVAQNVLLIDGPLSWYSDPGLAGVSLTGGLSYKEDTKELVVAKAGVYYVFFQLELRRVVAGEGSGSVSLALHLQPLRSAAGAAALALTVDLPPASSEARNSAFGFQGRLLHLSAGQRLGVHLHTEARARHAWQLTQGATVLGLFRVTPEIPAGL

human CD3 [4] = biological target: B2; assay: BLI (Octet); conditions not stated
CD19 = biological target: T1, CD19; assay: BLI (Octet); conditions not stated
human 4-1BB [5] = biological target: T2, human 4-1BB; assay: BLI (Octet); conditions not stated
human PD-L1 [6] = biological target: T4, human PD-L1; assay: BLI (Octet); conditions not stated
NKG2D ligand = assay: BLI (Octet); conditions and ligand not stated

B1 showed a Kd (human 4-1BB [1]) of 23.3 nM, a Kd (human EGFR) of 23.5 nM and a Kd (human PD-L1 [2]) of 3.25 nM. The Kd (human CD3 [3]) was 26.1 nM.

B2 was tested, and the Kd (SI-49P9) was 29.8 nM and the Kd (SI-75P4) was 22.7 nM.

B3 gave a Kd (human CD3 [4]) of 30.2 nM, a Kd (CD19) of 5.5 nM and a Kd (human 4-1BB [5]) of 2.74 nM. For the same binder, the Kd (human PD-L1 [6]) was 2.23 nM and the Kd (NKG2D ligand) was 24.5 nM.

Source: patent US20230114801A1 (SYSTIMMUNE, published 2023)
